Experimental data reported in patent publication US20160137696A1 (Bristol-Myers Squibb, published 2016).
Blank lines part the entries; values can stand above or below the binder they belong to. Starred links: 1 amine or outer side, 2 acyl side, 3 side chain; linkers in the order of their positions; H or OH if unused. Positions of bridges follow the written chain, without caps; N, C: chain ends. Non-standard residues stand in square brackets, D forms with d. Groups on a side chain read outwards from the residue. Primed or numbered codes have the meaning given here. No end group written: not given here. *: point of attachment. PEG8′ = PEG8 unit (23-azido-3,6,9,12,15,18,21-heptaoxatricosyl, i.e. an eight-unit PEG spacer) linking the triazole to vitamin E succinate; PEG11′ = PEG11 spacer (eleven ethylene glycol units, 3,6,...,33-undecaoxa) between the triazole and gamma-Glu-C18 diacid; PEG6′ = PEG6 spacer (17-azido-3,6,9,12,15-pentaoxaheptadecyl) linking the triazole to vitamin E succinate; Pra″ = its azide, alkyne or alkene has reacted where a group follows in round brackets; Pra(3) = propargylglycine, clicked to an azide to give a triazolyl-alanine; triazole = 1,2,3-triazole formed by click of the Pra alkyne with the azide; Trp(1-CH2CO) = O=C([C@H](Cc1cn(CC(=O)[*:3])c2ccccc12)N[*:1])[*:2]; Phe(3,4,5-F3) = N[C@@H](Cc1cc(F)c(F)c(F)c1)C(=O)O; C18 diacid = O=C(O)CCCCCCCCCCCCCCCCC(=O)*; γGlu = O=C(O)[C@H](CCC(=O)[*:2])N[*:1]; Aha = [N-]=[N+]=NCC[C@H](N)C(=O)O; Hyp = O=C(O)[C@@H]1C[C@@H](O)CN1; NMeF = CN[C@@H](Cc1ccccc1)C(=O)O; F3Phe = trifluoro-phenylalanine; NMeE = CN[C@@H](CCC(=O)O)C(=O)O; NMeNle = CCCC[C@H](NC)C(=O)O; Suc = O=C(CCC(=O)[*:2])[*:1]; triazole″ = not defined here; Bzt = benzothienylalanine; NMeA = CN[C@@H](C)C(=O)O; Orn = NCCC[C@H](N)C(=O)O; PEG4′ = not defined here; Pra = C#CC[C@H](N)C(=O)O; Dap = NC[C@H](N)C(=O)O; Sar = CNCC(=O)O

Tests used:
[1] = biological target: T1, Recombinant Human PD-L1-TVMV-His (human, UniProt Q9NZQ7 19-239); test: HTRF vs PD-1-Ig; A = IC50 0.10-1.6 µM
T1 construct: expressed in HEK293T cells; also called PD-L1-His; hPD-L1(19-239)-TVMV-His
Procedure: (§1) Homogenous Time-Resolved Fluorescence (HTRF) Assays of Binding of Soluble PD-1 to Soluble PD-L1. Soluble PD-1 and soluble PD-L1 refers to proteins with carboxyl-end truncations that remove the transmembrane-spanning regions and are fused to heterologous sequences, specifically the Fc portion of the human immunoglobuling G sequence (Ig) or the hexahistidine epitope tag (His). All binding studies were performed in an HTRF assay buffer consisting of dPBS supplemented with 0.1% (w/v) bovine serum albumin and 0.05% (v/v) Tween-20. For the PD-1-Ig/PD-L1-His binding assay, inhibitors were pre-incubated with PD-L1-His (10 nM final) for 15 m in 4 μl of assay buffer, followed by addition of PD-1-Ig (20 nM final) in 1 μl of assay buffer and further incubation for 15 m. PD-L1 fusion proteins from either human, cynomologous macaques, mouse, or other species were used. HTRF detection was achieved using europium crypate-labeled anti-Ig monoclonal antibody (1 nM final) and allophycocyanin (APC) labeled anti-His monoclonal antibody (20 nM final). Antibodies were diluted in HTRF detection buffer and 5 μl was dispensed on top of binding reaction. The reaction was allowed to equilibrate for 30 minutes and signal (665 nm/620 nm ratio) was obtained using an EnVision fluorometer. Additional binding assays were established between PD-I-Ig/PD-L2-His (20 and 5 nM, respectively), CD80-His/PD-L1-Ig (100 and 10 nM, respectively) and CD80-His/CTLA4-Ig (10 and 5 nM, respectively). Binding/competition studies between biotinylated Compound No. 71 and human PD-L1-His were performed as follows. Macrocyclic peptide inhibitors were pre-incubated with PD-L1-His (10 nM final) for 60 minutes in 4 μl of assay buffer followed by addition of biotinylated Compound No. 71 (0.5 nM final) in 1 μl of assay buffer. Binding was allowed to equilibrate for 30 minutes followed by addition of europium crypated labeled Streptavidin (2.5 pM final) and APC-labeled anti-His (20 nM final) in 5 μl of HTRF buffer. The reaction was allowed to equilibrate for 30 m and signal (665 nm/620 nm ratio) was obtained using an EnVision fluorometer.

[2] = biological target: T1, Recombinant Human PD-L1-TVMV-His; test: HTRF vs PD-1-Ig; C = IC50 0.0003-0.0099 µM
Procedure: as §1

T1 sequence (Q9NZQ7 other isoform, or with tags, fused parts or gaps limits assumed): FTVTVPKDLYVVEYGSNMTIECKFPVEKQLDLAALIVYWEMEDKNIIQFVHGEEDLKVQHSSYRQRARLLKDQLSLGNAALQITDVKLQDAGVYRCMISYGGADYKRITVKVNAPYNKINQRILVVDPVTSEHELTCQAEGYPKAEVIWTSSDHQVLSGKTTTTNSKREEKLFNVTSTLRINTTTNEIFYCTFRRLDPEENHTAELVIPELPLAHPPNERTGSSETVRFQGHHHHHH

Binder: {CH2CO}-Y[NMeA]DPHK[Hyp]WKW[NMeNle][NMeNle]ECG[Pra(3)]([triazole″-PEG4′-Suc-vitamin E])G (thioether N-14; reading uncertain) [Example 14060]
IC50 [1]: 100 to 1600 nM

Binder: {CH2CO}-Y[NMeA]DPHK[Hyp]WKW[NMeNle][NMeNle]ECG[Pra(3)]G (thioether N-14; not fully specified (residue 16, C-terminus)) [Example 14064]
IC50 [2]: 0.3 to 9.9 nM

Binder: {CH2CO}-Y[NMeA]NP[Dap]L[Hyp]WS[Bzt][NMeNle][NMeNle]RCGG[Aha] (thioether N-14) [INT-1300C]
IC50 [2]: 0.3 to 9.9 nM

B3: INT-1300Y (peptide)
peptide: {CH2CO}-Y[NMeA]DPHK[Hyp]WK[Trp(1-CH2CO)][NMeNle][NMeNle]ECG[Pra]-OH
modifications: thioether N-14
SMILES: C#CC[C@H](NC(=O)CNC(=O)[C@@H]1CSCC(=O)N[C@@H](Cc2ccc(O)cc2)C(=O)N(C)[C@@H](C)C(=O)N[C@@H](CC(=O)O)C(=O)N2CCC[C@H]2C(=O)N[C@@H](Cc2c[nH]cn2)C(=O)N[C@@H](CCCCN)C(=O)N2C[C@H](O)C[C@H]2C(=O)N[C@@H](Cc2c[nH]c3ccccc23)C(=O)N[C@@H](CCCCN)C(=O)N[C@@H](Cc2cn(CC(=O)O)c3ccccc23)C(=O)N(C)[C@@H](CCCC)C(=O)N(C)[C@@H](CCCC)C(=O)N[C@@H](CCC(=O)O)C(=O)N1)C(=O)O
notes: also called Intermediate 1300Y
IC50 [2]: 0.3 to 9.9 nM

Binder: {CH2CO}-Y[NMeA]NP[Dap]L[Hyp]WS[Bzt][NMeNle][NMeNle]RCG[Pra] (thioether N-14; not fully specified (residue 16)) [Example 14058]
IC50 [1]: 100 to 1600 nM

B5: Example 14051 (peptide)
peptide: YADPHKPWKWXXECGXG
modifications: as m106 (INT 1400A); Pra triazole-linked to vitamin E succinate 5-azidopentylamide
IC50 [1]: 100 to 1600 nM

Binder: {CH2CO}-Y[NMeA]DPHK[Hyp]WKW[NMeNle][NMeNle]ECG[Pra(3)]([triazole″-PEG6′-Suc-vitamin E])G (thioether N-14; reading uncertain) [Example 14053]
IC50 [1]: 100 to 1600 nM

B7: Example 14054 (peptide)
peptide: YADPHQPWSWXXECGXG
modifications: as m108 (INT 1400C); Pra triazole-linked to vitamin E succinate 5-azidopentylamide
IC50 [1]: 100 to 1600 nM

B8: INT-1400A (peptide)
peptide: {CH2CO}-Y[NMeA]DPHK[Hyp]WKW[NMeNle][NMeNle]ECG[Pra]G
modifications: thioether N-14; not fully specified (C-terminus); printed as ClAc-Tyr-mAla-Asp-Pro-His-Lys-Hyp-Trp-Lys-Trp-mNle-mNle-Glu-Cys-Gly-[(S)-propargylglycine]-Gly
notes: also called Intermediate 1400A
IC50 [2]: 0.3 to 9.9 nM

B11: Example 14056 (peptide)
peptide: YADPHKPWKWXXECGXD
modifications: as m107 (INT 1400B); Pra triazole-linked to vitamin E succinate 5-azidopentylamide
IC50 [1]: 100 to 1600 nM

Binder: {CH2CO}-Y[NMeA]DPHK[Hyp]WKW[NMeNle][NMeNle]ECG[Pra(3)]([triazole″-PEG8′-Suc-vitamin E])D (thioether N-14; reading uncertain) [Example 14057]
IC50 [1]: 100 to 1600 nM

Binder: {CH2CO}-Y[NMeA]DPHK[Hyp]WK[Trp(1-CH2CO)][NMeNle][NMeNle]ECG[Pra″]([triazole-PEG11′-γGlu-C18 diacid]) (thioether N-14) [Example 14092]
IC50 [2]: 0.3 to 9.9 nM

B13: Example 3619 (peptide)
peptide: {CH2CO}-F[NMeF][NMeNle][Sar]DV[NMeF]Y[NMeE]WYLCGGGK-NH2
modifications: thioether N-13
SMILES: CCCC[C@H]1C(=O)N(C)CC(=O)N[C@@H](CC(=O)O)C(=O)N[C@@H](C(C)C)C(=O)N(C)[C@@H](Cc2ccccc2)C(=O)N[C@@H](Cc2ccc(O)cc2)C(=O)N(C)[C@@H](CCC(=O)O)C(=O)N[C@@H](Cc2c[nH]c3ccccc23)C(=O)N[C@@H](Cc2ccc(O)cc2)C(=O)N[C@@H](CC(C)C)C(=O)N[C@H](C(=O)NCC(=O)NCC(=O)NCC(=O)N[C@@H](CCCCN)C(N)=O)CSCC(=O)N[C@@H](Cc2ccccc2)C(=O)N(C)[C@@H](Cc2ccccc2)C(=O)N1C
notes: order read from the list of couplings, which runs from C- to N-terminus
IC50 [2]: 0.3 to 9.9 nM

B14: Example 3214 (peptide)
peptide: {CH2CO}-[Phe(3,4,5-F3)][NMeF][NMeNle]PDV[NMeF]Y[NMeE]WYLCGGGK-NH2
modifications: thioether N-13; not fully specified (residue 4); printed as ClAc-Phe(3,4,5-tri-F)-[N-Me]Phe-[N-Me]Nle-cis-(D)-Pro(4-OH)-Asp-Val-[N-Me]Phe-Tyr-[N-Me]Glu-Trp-Tyr-Leu-Cys-Gly-Gly-Gly-Lys
notes: as for B13
IC50 [2]: 0.3 to 9.9 nM

B15: Example 14087 (peptide)
peptide: FFXPDVFXPWYLCGX
modifications: as m16 (INT 1400K); Pra triazole-linked to vitamin E succinate 5-azidopentylamide
IC50 [1]: 100 to 1600 nM

More lines, now with the values ahead:

IC50 [2]: 0.3 to 9.9 nM
B1: INT-1400F (peptide)
peptide: {CH2CO}-Y[NMeA]DPHK[Hyp]WKW[NMeNle][NMeNle]ECG[Pra]
modifications: thioether N-14; not fully specified (C-terminus); printed as ClAc-Tyr-mAla-Asp-Pro-His-Lys-Hyp-Trp-Lys-Trp-mNle-mNle-Glu-Cys-Gly-[(S)-propargylglycine]
notes: also called Intermediate 1400F

IC50 [2]: 0.3 to 9.9 nM
B2: INT-1400K (peptide)
peptide: {CH2CO}-[F3Phe][NMeF][NMeNle][dP]DV[NMeF][Orn][dP]WYLCG[Pra]
modifications: thioether N-13; not fully specified (C-terminus); printed as ClAc-F3Phe-mPhe-mNle-dPro-Asp-Val-mPhe-Orn-dPro-Trp-Tyr-Leu-Cys-Gly-[(S)-propargylglycine]
notes: also called Intermediate 1400K

IC50 [2]: 0.3 to 9.9 nM
B4: INT-1400G (peptide)
peptide: {CH2CO}-Y[NMeA]NP[Dap]L[Hyp]WSW[NMeNle][NMeNle]RCG[Pra]
modifications: thioether N-14; not fully specified (C-terminus); printed as ClAc-Tyr-mAla-Asn-Pro-Dap-Leu-Hyp-Trp-Ser-Trp-mNle-mNle-Arg-Cys-Gly-[(S)-propargylglycine]
notes: also called Intermediate 1400G

IC50 [2]: 0.3 to 9.9 nM
B6: INT-1400D (peptide)
peptide: {CH2CO}-Y[NMeA]DPHK[Hyp]WK[Trp(1-CH2CO)][NMeNle][NMeNle]ECG[Pra]G
modifications: thioether N-14; not fully specified (C-terminus); printed as ClAc-Tyr-mAla-Asp-Pro-His-Lys-Hyp-Trp-Lys-“Trp”-mNle-mNle-Glu-Cys-Gly-[(S)-propargylglycine]-Gly

IC50 [2]: 0.3 to 9.9 nM
B9: INT-1400E (peptide)
peptide: {CH2CO}-Y[NMeA]DPHK[Hyp]WK[Trp(1-CH2CO)][NMeNle][NMeNle]ECG[Pra]D
modifications: thioether N-14; not fully specified (C-terminus); printed as ClAc-Tyr-mAla-Asp-Pro-His-Lys-Hyp-Trp-Lys-“Trp”-mNle-mNle-Glu-Cys-Gly-[(S)-propargylglycine]-Asp
notes: also called Intermediate 1400E

IC50 [2]: 0.3 to 9.9 nM
B10: INT-1400B (peptide)
peptide: {CH2CO}-Y[NMeA]DPHK[Hyp]WKW[NMeNle][NMeNle]ECG[Pra]D
modifications: thioether N-14; not fully specified (C-terminus); printed as ClAc-Tyr-mAla-Asp-Pro-His-Lys-Hyp-Trp-Lys-Trp-mNle-mNle-Glu-Cys-Gly-[(S)-propargylglycine]-Asp
notes: also called Intermediate 1400B

IC50 [2]: 0.3 to 9.9 nM
B12: INT-1400H (peptide)
peptide: {CH2CO}-Y[NMeA]DPHQ[Hyp]WSW[NMeNle][NMeNle]ECG[Pra]
modifications: thioether N-14; not fully specified (C-terminus); printed as ClAc-Tyr-mAla-Asp-Pro-His-Gln-Hyp-Trp-Ser-Trp-mNle-mNle-Glu-Cys-Gly-[(S)-propargylglycine]
notes: also called Intermediate 1400H

IC50 [2]: 0.3 to 9.9 nM
B16: INT-1400C (peptide)
peptide: {CH2CO}-Y[NMeA]DPHQ[Hyp]WSW[NMeNle][NMeNle]ECG[Pra]G
modifications: thioether N-14; not fully specified (C-terminus); printed as ClAc-Tyr-mAla-Asp-Pro-His-Gln-Hyp-Trp-Ser-Trp-mNle-mNle-Glu-Cys-Gly-[(S)-propargylglycine]-Gly
notes: also called Intermediate 1400C
